Numbering of substitutions follows the chain as printed. Names may count otherwise.
B1: CH103-S14P (antibody, V domains shown)
V domain 1: QVQLQESGPGVVKPSETLSLTCTVSGGSMGGTYWSWLRLSPGKGLEWIGYIFHTGETNYSPSLKGRVSISVDTSEDQFSLRLRSVTAADTAVYFCASLPRGQLVNAYFRNWGRGSLVSVTA
V domain 2: YELTQPPSVSVSPGQTATITCSGASTNVCWYQVKPGQSPEVVIFENYKRPSGIPDRFSGSKSGSTATLTIRGTQAIDEADYYCQVWDSFSTFVFGSGTQVTVL
B2: CH103-S14P/G30S (antibody, V domains shown)
V domain 1: B1 V domain 1 with G30S
V domain 2: B1 V domain 2
B3: CH103 UCA (antibody, V domains shown)
VH: QVQLQESGPGLVKPSETLSLTCTVSGGSISSYYWSWIRQPPGKGLEWIGYIYYSGSTNYNPSLKSRVTISVDTSKNQFSLKLSSVTAADTAVYYCASLPRGQLVNAYFDYWGQGTLVTVSS
VL: not shown
notes: also called unmutated common ancestor of the CH103 lineage
B4: UCA-S30G/S31G (antibody, V domains shown)
VH: B3 VH with S30G, S31G
VL: not shown
B5: UCA-S30G (antibody, V domains shown)
VH: B3 VH with S30G
VL: not shown
B6: CH103 UCA-S30G/S31G (antibody, V domains shown)
VH: B3 VH with S30G, S31G
VL: not shown
B7: UCA-P14S (antibody, V domains shown)
VH: B3 VH with P14S
VL: not shown
B8: CH103 UCA (antibody, V domains shown)
VH: B3 VH
VL: not shown
notes: also called unmutated common ancestor of the CH103 lineage; wild-type UCA
B9: CH103 UCA-S30G (antibody, V domains shown)
VH: B3 VH with S30G
VL: not shown
B10: CH103 UCA-P14S (antibody, V domains shown)
VH: B3 VH with P14S
VL: not shown
B11: CH103 lineage intermediate I3 (antibody, V domains shown)
VH: QVQLQESGPGLVKSSETLSLTCTVSGGSMGGYYWSWLRQSPVKGLEWIGYIFHTGHTNYNPSLESRVTVSVDTSENQFSLRLRSVTAADTAVYYCASLPRGQLVNAFFDNWGQGTLVTVAS
VL: not shown
B12: I3 (CH103 lineage intermediate) (antibody, V domains shown)
VH: B11 VH
VL: not shown

Legend:
Conditions in all cases: both partners purified
[1] = target: T1, C.CH505TF gp120 (HIV-1 clade C, CH505 transmitted/founder, UniProt M4M0W3, strain); test: SPR
[2] = target: T2, C.CH505TF gp120 (HIV-1 clade C, CH505 transmitted/founder, UniProt M4M0W3, strain); test: SPR; BIAcore T200; […]) 5 min at 50 µL/min, 10 min dissociation; […]; global 1:1 Langmuir fit; […]
[3] = target: T2, C.CH505TF gp120; test: as above; remark: listed apart in the source
[4] = target: T1, C.CH505TF gp120; test: SPR; remark: listed apart in the source

Row | Binder | koff [1] [s⁻¹] | kon [1] [M⁻¹ s⁻¹] | Kd [2] [µM] | further results
1 | B1 | 0.000262 | 5200 | – | Kd [1]: 0.05 µM
2 | B2 | 0.0003 | 4000 | – | Kd [1]: 0.07 µM
3 | B3 | – | 23500 | – | –
4 | B4 | – | – | 0.44 | –
5 | B5 | – | – | 0.4 | –
6 | B6 | 0.011 | 25200 | – | –
7 | B7 | – | – | 0.37 | –
8 | B8 | – | – | 0.43 | koff [3]: 0.0101 s⁻¹; kon [3]: > 10000 M⁻¹ s⁻¹
9 | B9 | 0.0117 | 29600 | – | –
10 | B10 | 0.0112 | 30000 | – | –
11 | B11 | – | – | – | koff [4]: 0.000234 s⁻¹; kon [4]: 24500 M⁻¹ s⁻¹
12 | B12 | – | – | 0.00953 | –

— PMC6368608 (Nature Communications, 2019)
